Test: yeast display, Sf9 membrane polyspecificity reagent, FACS + sequencing; frameworks hold sequencing errors
Outline: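 Nanobodies came from a synthetic yeast display library in Saccharomyces cerevisiae BJ5465, induced with galactose for 36–48 hours and stained for 1 hour at 4 °C with 10% biotinylated, detergent-solubilized Sf9 membrane reagent. Cells were enriched on streptavidin microbeads and then FACS-sorted, with low and high (top ~1%) gates set on anti-HA fluorescence for expression and streptavidin fluorescence for reagent binding. Each polyreactivity label reflects the gate a clone came from. Genes were amplified by colony PCR, sequenced by MiSeq 2 × 250 and filtered by CDR length.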

Row | Sequence | polyreactivity (PSR sort gate)
1 | QVQLVESGGGLVQEGGSLRLSCAASGRTLRYNDMGWYRQAPGKERELVAAISTRGGSTYYADSVKGRFTISRDNAKNTVYLQMYSLKPEDTAVYYCAVTPRIPGHFEDYYWGQGTQVTVSS | low polyreactivity
2 | QVQLVESGGGLVQAGGSLRLICAASGRTLDYYAMGWYRQAPGKERELVGAISQSDDSTYYADSVKGRFTISRDNSKNTVYLQMNILKPEDTAVNYCAAEIELFSPDGVGIYWYVYWGQGTQVYVSS | high polyreactivity
3 | QVQLVESGGGLVQAGGSLRLSCAASGSTFYSYAMGWYRQAPGKERELVAAISWRGGSTYYADSVKGRFTISRDNAKNTVYLQMNSLKPEDPEVYYCAAYRGDGYEYWGQGTQVTVSS | high polyreactivity
4 | QVQLVESGGGLVQAGGSLRLSCAASGFIFGHYAMGWYRPAPGKERELVAGINSSGGSTHYADSVKGRFTISRDNAKNTVYLQMNSLKPEDTAVYYCAADVYRYYAGSRYYYWGQGTQVTVSS | low polyreactivity
5 | QVQLVESGGCSVQAGGSLRLICAASGYTFYINAMGWYRPAPGKERELVAVITWSSGSTYYADSVKGRFTISRDNAKNTVYLQMYSLKAEDTAVYYCAADVTYEDGAWTIQYDYWGQGTQVTVSS | high polyreactivity
6 | QVQLQESGAGLVQAGVSLRLSCAASGYISTFSSEMGWYRQAPGKDRELVASIAPGCTTSYADSVKGRFTISRDKAKNTVFLQMNSLKPEDTAVYYCAVDYTVPASFGYWGQGTQVTVSS | high polyreactivity
7 | QVQLVESGGGLVQAGGSLRLSCAASGRIIEHNAMGWYRQAPGKERELVAAINYSGGSTYYADSVKGRFTISRDNAKNTVYLQMNSLKPEDTAVYYCATRTGHWGQGTQVTVSS | low polyreactivity
8 | QVQLVESGGGLVQAGGSLRLSCAASGLIFTYYAMGWYRQAPGKERELVAAINWSGGSTYYADSVKGRFTISRDNAKNTVYLQMNSLKPEDTAVYYCAAAYANYRFYYWGQGTQVTVSS | high polyreactivity
9 | QVQLVESGGGLVQAGGSLRLSCAASGIIFRWYAMGWYRQAPGKERELLAAITSSGGRTYYADSVKGRFTISRDNAKNTVYFQMNSLKPEDSAVYYCAASYYIVGWDPYDYWGQGTQVTVSS | high polyreactivity
10 | QVQLVESGGGLVQAGGSLRLSCAASGSIFVYYAMGWYRQAPGKERELVAAITETGGDTYYADSVKGRFTISRDNAKNTVYLQMNSLKPEDTAVYYCNTVRRSYWSWSTENSDYWGQGTQVTVSS | low polyreactivity
11 | QDQLVESGGGLVQAGGSLRLSCAASGSTFPFYAMGWDRQAPGKERELVAAITSGGSTYADSVKGRFTISRDNAKNTVYLQMNSLKPEDTAVYYCAAVGWFADCLFSDIKGYSWGQGTPVTVSS | low polyreactivity
12 | QVQLVESGGGLVQAGGSLRLSCAASGSNFDNAKGWYRQAPGKERELVAAITSGGITNYADSVKGRFTNSRDNAKKTVYLQMNSQKPEDTAVYYCNTMSPTQTKYDYWGQGTQVTVSS | low polyreactivity
13 | QVQLVESGGGLVQAGGSLRLSCAASGYIFDRYAMGWYRPAPGKERELVAAISVGGGTTYYADSVKGRFTISRDNAKNTVYLQMNSLKPEDTAVYYCAARSDSYAPRRGYWGQGTQVTVSS | high polyreactivity
14 | QVQLVESGGGLVQAGGSLRLSCAASGSIFVEYAMGWYRQAPGKERELVAGISSGGITSYADSVKGRFTISRDNAKNTVYLQMNSLKPEDTAVYYCATDPYKWFFSSYYLLQEVEYWGQGTQVTVSS | low polyreactivity
15 | QVQLVESGGALVQAGGSLRLSCAASGGTFYTYAMGWYRQAPGKERELVATITRRGGSTYYADSVKGRFTISRDNAKNTVYLQMKSLKPEDTAVYYCAARSYISTRPIMGYWGQGTQVTVSS | high polyreactivity
16 | QVQLVESGGGLVQAGGSLRLSCAASGRIFSRYAMGWYRQAPGKERELVATISSGGGTYYADSVKGRFTISRDNAKNTVYLQMNSLKPEDTAVYYCAVQVWYGRYYYWGQGTQVTVSS | high polyreactivity

Row | Sequence | polyreactivity (PSR sort gate)
17 | QVQLVESGGGLVQAGGSLRLSCAASGSTFYYYTMGWYRQAPGKEREFVAAITVGGGSTYYADSEKGRFTISRDNAKNTVYLQMNSLKPEDTAVYYCAKEVGRYLGTVSYEYDYWGQGTQVTVSS | high polyreactivity
18 | QVNLEESGGGLVQAGVILRLSSAASGSIFYRNAMGWYRQAPGKEREWVAAISSGGSTYYADSVKGRFTISRDNAKNTVYLQMNSLKPEETAVYYCAKDAHIWGYRDYEYWGLGTQVTVSS | high polyreactivity
19 | QVQLVESGGGLVQAGGSLRLSCAASGRIFAYNTMGWYREAPGKERELVAVSTSGGSTNYADSVKGRFTISRDNAKNTVYLQMNSLKPEDSAVYYCAKRPYGRSGGSRYDYWGQGTQVTVSS | high polyreactivity
20 | QVQLVESGGGLVQAGGSLRLSCAASGLIFPVYAMGWYRQAPGKEREFVASIWRGGTTYYADSVKGRFTISRDNAKNTVYLQMNSLKPEDTAVYYCAARYYPRGLVFPFTKYDYWGQGTQVTVSS | high polyreactivity
21 | QVQLVESGGGLVQAGGSLRLSCAASGFIIRSYAMGWYRQAPVKERELVAAISRGSRTYYADSVKGRFTISRDNAKNTVYLQMNSLKPEDTAVYYCNADPNVPVETFDYWGQGTQVTVSS | high polyreactivity
22 | QVQLVESGGGLVQAGGSLRLSSAASGSTFDDYVMGWYRQAPGKERELVAGINSRGTSTDYADSVKGRFTISRDNAKNTVYLQMNSLKPEDTAVYYCNAESPSGRLFDDAYENDYWGQGTQVTVSS | low polyreactivity
23 | QVQLVESGGGLDQAGGSLRLSCAASGSIIGIYAMGWYRQAPGKERELVAAISWSGGSTYYADSVKGRFTISRDNAKNTVYLQMNSLKPEDTAVYYCAARGHYQYYWGQGTQVTVSS | low polyreactivity
24 | QDQLVESRGVLVQAGGSLRLSCAASGSTFEANAMGWYRQAPGKERELVAVITWTGGSTYYADSVKGRFTISRDNAKNTVYLQMNSLKPEDTAVYYCAADGVVPGRFFWPAHEYDYWGQGTQVTVSS | low polyreactivity
25 | QVQLVESGGGLVQAGGSLRLSCAASGSTCILNAMGWYRQAPGKERELVATISSSDTSTYYADSVKGRFTISRDNAKNTVYLQMNCLKPEDTAVYYCNADYYTTSYLQGVYHYGVEYDFWGQGTQVTVSS | low polyreactivity
26 | QVQLVESGGGLVQAGGSLRLSCAPSGSIFRYYAMGWYRQAPGKERELVAAISWSGTSTYYADSVKGRFTISRDNAKNTVYLQMNSLKPEDTAVYYCNKVIPANIRRSYDYWGQGTQVTVSS | high polyreactivity
27 | QVQLVESGGGLVQAGGSLRLSCAASGLTFSRYAMGWYRQAPGKERELVAAISRRGGITYYADSVKGRFTISRDNAKNTVYLQMNSLKPEDTAVYYCNKDYGGELDYWGQGTQVSVSS | high polyreactivity
28 | QVQLVESGGGLVQAGGSLRLSCAASGSIFVHYDMGWYRPAPGKERELVADIDYSGGSTYYADSVKGRFTISRDNAKNTVYLQMNSLKPEDTAVYYCAAERRRWGLDYYYWGQGTQVTVSS | high polyreactivity
29 | QVQLVESGGGLVQAGGSLRLSCAASGSSFVYNVMGWYRPAPGKERELVAAIRWRGGSTYADSVKGRFTISRDNAKNTVYLQMNSLKPEDTAVYYCAAGIPRYWYAGHYDYWGQGTQVTVSS | low polyreactivity
30 | QVQLVESGGGLVQAGGSLRLSCAASGSNFLAYAMGWYRQAPGKERELVADISWGGGSTSYADSVKGRFTISRDNAKNTVYLQMNSLKPEDTAVYYCNKGSFSKRRDYYWGQGTQVTVSS | high polyreactivity
31 | QVQLVESGGGLVQAGGSLRLSCAASGSTSYPYAMGWYRQAPGKERELVATITSGGRTNYADSVKGRFTISRDNAKNTVYLQMNSLKPEDTAVYYCNARFYRWRSYGYDYWGQGTQVTVSS | high polyreactivity
